Assay in all cases: purified protein
Conditions in all cases: donor substrate; acceptor methyl alpha-D-mannopyranoside

In series [1] the test system is O=c1ccn([C@@H]2O[C@H](COP(=O)(O)OP(=O)(O)O[C@H]3O[C@@H]([C@H](O)CO)[C@H](O)[C@H]3O)[C@@H](O)[C@H]2O)c(=O)[nH]1.
Series [2] concerns O=c1ccn([C@@H]2O[C@H](COP(=O)(O)OP(=O)(O)O[C@H]3O[C@H](CO)[C@H](O)[C@H](O)[C@H]3O)[C@@H](O)[C@H]2O)c(=O)[nH]1.
For series [3], the system named is Nc1nc2c(ncn2[C@@H]2O[C@H](COP(=O)(O)OP(=O)(O)O[C@H]3O[C@H](CO)[C@@H](O)[C@H](O)[C@@H]3O)[C@@H](O)[C@H]2O)c(=O)[nH]1.
Series [4] concerns Nc1nc2c(ncn2[C@@H]2O[C@H](COP(=O)(O)OP(=O)(O)O[C@H]3O[C@H](CO)[C@@H](O)[C@H](O)[C@H]3O)[C@@H](O)[C@H]2O)c(=O)[nH]1.
Series [5] deals with O=c1ccn([C@@H]2O[C@H](CO[P@@](=O)(O)O[P@@](=O)(O)O[C@H]3O[C@H](CO)[C@@H](O)[C@H](O)[C@H]3O)[C@@H](O)[C@H]2O)c(=O)[nH]1.

Regarding LPG1 (Leishmania major), in series [1], the Km stood at 70 ± 70 µM, the kcat amounted to 512.5 ± 1.03 s⁻¹ and the kcat/Km is 6.83e+06 M⁻¹ s⁻¹. Besides, in series [2], the Michaelis constant (Km) came out at 230 ± 20 µM, the turnover number (kcat) was 5.33 ± 0.367 s⁻¹ and the kcat/Km was determined as 23300 M⁻¹ s⁻¹.

LPG1L (Leishmania major): the Km in series [3] came to 32 ± 5 µM; in series [4], 43 ± 5 µM; in series [1] it was 20 ± 20 µM; in series [2], 50 ± 10 µM; in series [5] it was 6 ± 1 µM. The kcat in series [3] amounted to 1.43 ± 0.1 s⁻¹; in series [4], 0.4 ± 0.05 s⁻¹; in series [1], 88.3 ± 1.05 s⁻¹; in series [2], 7.8 ± 0.833 s⁻¹; in series [5] it was 3.42 ± 0.433 s⁻¹. The kcat/Km in series [3] was 47700 M⁻¹ s⁻¹; in series [4], 8330 M⁻¹ s⁻¹; in series [1], 4.85e+06 M⁻¹ s⁻¹; in series [2], 165000 M⁻¹ s⁻¹; in series [5], 578000 M⁻¹ s⁻¹.

For LPG1R (Leishmania major), in series [1], the Km came out at 550 ± 680 µM, the kcat came out at 10.6 ± 1.27 s⁻¹ and the kcat/Km is 19100 M⁻¹ s⁻¹. In addition, in series [5], the Km is 38 ± 5 µM, the kcat turned out to be 5.05 ± 0.55 s⁻¹ and the catalytic efficiency (kcat/Km) stood at 133000 M⁻¹ s⁻¹.

As to LPG1G (Leishmania major), in series [1], the Km was determined as 30 ± 40 µM, the kcat was found to be 205.9 ± 0.967 s⁻¹ and the kcat/Km was 6.56e+06 M⁻¹ s⁻¹. In series [2], the Km was 5 ± 1 µM, the kcat is 2.2 ± 0.167 s⁻¹ and the kcat/Km turned out to be 466000 M⁻¹ s⁻¹.
